Measured values: the RNAGym collection of RNA variant scans (doi:10.1073/pnas.2313332121)

B1: TPR t1 (parent)
chain: GACCAAUCUGCCCUCAGAGCUCGAGAACAUCUUCGGAUGCAGAGGAGGCAGGCUUCGGUGGCGCGAUAGCGCCAACGUCCUCAACCUCCAAUGCAUCCCACCACAUGAUGAUGCCUGAAGAGCCUUGGUUUUUUG

Variants of: B1
Assay: polymerase ribozyme fitness, log enrichment relative to wild type (log ratio); higher = more active; in vitro selection for triplet polymerase activity
In short: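 Genotype fitness is the logarithm of its enrichment divided by wild-type enrichment, using inverse-variance-weighted averages of replicates. That logarithm is base 2. Enrichment was measured by Illumina sequencing of input and output libraries from one triplicate in vitro selection round, with frozen incubation at −7 °C, on PCR-built, transcribed mutant libraries of each subunit of a heterodimeric triplet polymerase ribozyme, retaining genotypes with ≥10 input reads and ≥1 read per output.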

In order of falling “polymerase ribozyme fitness (log ratio)” value:
1. G61A C124A  1.79
2. U87A C123G  1.66
3. C49U A121C  1.39
4. C4A A74C C123G U133G  0.795
5. A50C C124A  0.557
6. C64U G135C  0.469
7. C12U C102A C124U  0.00391
8. A6C C72U  -0.203
9. C123A U125G  -0.261
10. G61U G77C C79U  -0.442
11. U7G G58C U106A G128A  -0.568
12. A37G C64U C88U A121U  -0.585
13. C70A G120C  -0.593
14. C13G G36U A75G G77A C123U  -0.649
15. C53U G69U C70U C82U  -0.71
16. G48U G57A G58A  -0.738
17. G45C C53G C73A  -0.795
18. C20A A50G G52A C124A  -1.12
19. A5G G93A  -1.17
20. G48U G58A G122A  -1.21
21. C72A U129A  -1.32
22. A90C U106A  -1.42
23. G60A U81A  -1.44
24. C12A G63U C70G C89A A90U A100U A121G  -1.48
25. C73U C115G U132A  -1.49
26. A16U C79U A91G C123G U131G  -1.49
27. G57C G110A  -1.6
28. C11U A43U G60U A90C  -1.62
29. C8A C101G  -1.63
30. C11U C79G  -1.69
31. C62G G93A  -1.76
32. U38G C101A  -1.88
33. A29U G52U U106C G117A A118U C124G  -1.91
34. G19U C124U  -1.97
35. U14G A74U  -2.04
36. C70U U87C U116A A121C  -2.16
37. C62U C72U U92C U96C  -2.18
38. G63C U125G  -2.2
39. G71U C88U U130G U131G  -2.2
40. G51U C53U C88G  -2.23
41. G10C A37C A66U  -2.37
42. C94A A95C U131G  -2.37
43. A29G C76U G77C  -2.58
44. C73G C94A  -2.58
45. C4G G69C G127A  -2.67
46. C11U G39U C79U G93U  -2.7
47. G47U G52A  -2.71
48. C56G G63A G135C  -2.89
49. C4G G44C  -2.96
50. G48U G60U G61A A83G U129G  -3.05
51. G17U U21A U112C C123A  -3.07
52. C53G C97U C104A A118G  -3.19
53. G36A G52A G63U  -3.22
54. C86G A108G U130A  -3.28
55. G48A G61C C88A C97U C115G A119G U126A  -3.38
56. G19U A43C  -3.38
57. U14A A111G U130A  -3.57
58. A43C G47U  -3.64
59. U32C G44U U92G A118U U133A  -3.79
60. U109A C123U  -3.85
61. G42U C88U C101G  -3.94
62. C70A U87C C102A  -3.97
63. C40G U109A C114G U132A  -4.05
64. C53U C88A G110A U112G  -4.23
65. A2U G63A C86A  -4.44
66. G47C G52U A74G U96A  -4.89
67. G23A G48U  -5.02
68. G57A G71U C88G  -5.05
69. G47C A108G U112A U133A  -5.17
70. U30A A41C G113A C124A  -5.47
71. U87A C99U G110U  -5.56
72. A24U C72G  -5.64
73. U81A C94U G117A C123G  -5.66
74. A27U U38C A46U G48A G69U G110U C114U A119G  -6.11
75. A6U C15G U33A G63A G93A G113U  -6.39
76. A108U U129A  -6.43
77. G52U G60A G69A C82A C102U C123G  -6.73
78. A50U C56U C64U U78C C85A U109A  -6.76
79. C22A A43G A46U C72U G113C U116G  -6.81
80. U109A C123A  -6.83
81. G107U C114A  -7.09
82. A27U C40U C72G A100C  -7.09
83. C49U C62U C114G G117C U125C U129C  -7.74
